Source: paper PMC5383399, “Kinesin-4 KIF21B is a potent microtubule pausing factor” (eLife, 2017)

How the values were obtained:
[1] = molecular target: KIF21B-FL-GFP (full-length KIF21B-GFP) (human); assay: single-molecule fluorescence intensity and photobleaching-step analysis (TIRF); purified GFP fusions diluted in PBS and immobilized on plasma-cleaned coverslips, room temperature; compared with monomeric GFP and dimeric GFP-EB3
[2] = molecular target: KIF21B-FL-GFP (full-length KIF21B-GFP) (human); assay: single-molecule fluorescence intensity analysis (TIRF); GFP-tagged motors moving on MTs, compared with single GFP immobilized, or KIF5B-560-GFP moving, in a separate chamber on the same coverslip; 15 µM tubulin, 20 nM mCherry-EB3, MRB80 with 50 mM KCl, 30°C
[3] = molecular target: KIF21B-FL-ΔrCC-GFP (human); assay: single-molecule fluorescence intensity and photobleaching-step analysis (TIRF); purified GFP fusions diluted in PBS and immobilized on plasma-cleaned coverslips, room temperature; compared with monomeric GFP and dimeric GFP-EB3
[4] = molecular target: KIF21B-MD-CC1-GFP (purified) (human); assay: as above
[5] = molecular target: KIF21B-MD-CC1-GFP (purified) (human); assay: single-molecule fluorescence intensity analysis (TIRF); GFP-tagged motors moving on MTs, compared with single GFP immobilized, or KIF5B-560-GFP moving, in a separate chamber on the same coverslip; 15 µM tubulin, 20 nM mCherry-EB3, MRB80 with 50 mM KCl, 30°C
[6] = molecular target: KIF21B-MD-CCΔrCC-GFP (human); assay: single-molecule fluorescence intensity and photobleaching-step analysis (TIRF); purified GFP fusions diluted in PBS and immobilized on plasma-cleaned coverslips, room temperature; compared with monomeric GFP and dimeric GFP-EB3
[7] = molecular target: the molecule itself; assay: single-molecule fluorescence intensity analysis (TIRF); GFP-tagged motors moving on MTs, compared with single GFP immobilized, or KIF5B-560-GFP moving, in a separate chamber on the same coverslip; 15 µM tubulin, 20 nM mCherry-EB3, MRB80 with 50 mM KCl, 30°C

KIF21B-FL-GFP (full-length KIF21B-GFP) (natural protein)
stoichiometry N [1]: 2
stoichiometry N [2]: 2

KIF21B-FL-ΔrCC-GFP (natural protein)
stoichiometry N [3]: 2

KIF21B-MD-CC1-GFP (purified) (domain or fragment)
stoichiometry N [4]: 2
fluorescence intensity relative to single monomeric GFP [5]: 1.8 fold

KIF21B-MD-CCΔrCC-GFP (domain or fragment)
stoichiometry N [6]: 2

B1: KIF5B-560-GFP (domain or fragment, UniProt P33176 1-560, looked up)
chain: MADLAECNIKVMCRFRPLNESEVNRGDKYIAKFQGEDTVVIASKPYAFDRVFQSSTSQEQVYNDCAKKIVKDVLEGYNGTIFAYGQTSSGKTHTMEGKLHDPEGMGIIPRIVQDIFNYIYSMDENLEFHIKVSYFEIYLDKIRDLLDVSKTNLSVHEDKNRVPYVKGCTERFVCSPDEVMDTIDEGKSNRHVAVTNMNEHSSRSHSIFLINVKQENTQTEQKLSGKLYLVDLAGSEKVSKTGAEGAVLDEAKNINKSLSALGNVISALAEGSTYVPYRDSKMTRILQDSLGGNCRTTIVICCSPSSYNESETKSTLLFGQRAKTIKNTVCVNVELTAEQWKKKYEKEKEKNKILRNTIQWLENELNRWRNGETVPIDEQFDKEKANLEAFTVDKDITLTNDKPATAIGVIGNFTDAERRKCEEEIAKLYKQLDDKDEEINQQSQLVEKLKTQMLDQEELLASTRRDQDNMQAELNRLQAENDASKEEVKEVLQALEELAVNYDQKSQEVEDKTKEYELLSDELNQKSATLASIDAELQKLKEMTNHQKKRAAEMMASLLK
notes: KIF5B (kinesin-1), residues 1–560; also called N-terminal fragment of kinesin-1, KIF5B residues 1–560; not shown: GFP, C-terminal, kept
fluorescence intensity relative to single monomeric GFP [7]: ~1.8 fold
stoichiometry N [7]: 2
